This note sets out measurements from article PMC2881812.

As a reminder, the stoichiometry N is a count of units in the complex or per binding partner.

The target in this assay is p22(79-227) (T. brucei). In words: SEC. (In general: In gel filtration, larger molecules generally elute earlier.)

The substance p22(79-227) (domain or fragment) displayed a stoichiometry N of 3.
